experiment: protease stability score; higher = more stable; yeast display proteolysis, trypsin and chymotrypsin;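 note: relative to predicted unfolded state with 0 unfolded-like and 1 meaning tenfold more protease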

Row | Sequence | protease stability score
1 | DSEEKDQRKASELTMRLLKTGNEDLMSHFFDPDTKVTIGDKEYHGREVLSHLLWEEKERIKGMRFEIKDLHVRYIGDKIRVESHVVLEINGVTLDTELIFHAEKVDGRWLSRSFEVRIT | -0.023
2 | DEDEELARKFIKKTSEARETGNEDDFMNLADPNVRQDINGVPIIGREEVSRIISHLRIRMEIRIRDVRIVGEKVELDVHIRMDIDFDGQRIHDKRDVHIILVKIDGKWLLHSVNHR | 0.536
3 | SDEEKIARLALEILIKILLTGDEKMILDNADPDVRLEVNGRQIHGMEWLSKIMTEWRFRDTHVRSVRNINGVVHVDGEQDVNYNGREETVHTHYIIEKVNGVWFLKRVVLH | 1.44
4 | EEEDRIFKEARRLLEYVSETGDETTLKKLVDPHARTHIGDKLLHGREWLHDLLRKAGEDRFHFIIHHVDLQGDKIQMFGQLVIGDKLIHVEIIVNKIDGRWFVESIKID | 0.889
5 | DEDHEELHHWSRLTLESIKTGNEDELHKFADPNVRFKVNGKDIHGMESFVRFMLEFIDRYPNLVLEEKHFHVVNGRMIQIIRVRVGDKTSEIFLIAHKVDGRWHLEHMEIR | 1.08
6 | SEDEEDARRMVEIWKRSLETGDFKRILELMDPNTKYLFNGREYHGRHFVSRLFTEELERIKGARIEEESLEIQGNKVILHTRLHINGQHFKQITIIMKIDGKWFLESFSVE | 2.01
7 | HESEELAKHFSKIMDDLIRTGDEEHFDRLLDPNVKLDVNGRTIHGRERVSEIIHEKNKELGIDQIHVRKQDEHIIGDKLILHIEIIYGDKRIELIIITRKINGKWRIESVELREH | 0.876
8 | DKEEELSEIAHKIWIHELHTGDFESLEKNMDPHARIIQGDWHYHGRESVYHVFSRIVRMLGVKHIEIHSMEVINGQVHLDTRLHAEGHSRNTHVFFVKINGRWLSKEFEIK | 0.711
9 | HEHDQKSNKMSEILMELWKTGNEDWMDKLVDPNARTDIEVGDKRIENVGMEELHKWLFDHHRRIKGIKIIHRTMEVVGDKVTLHLELRFNGVRVEIIIRLIVIDGRVHSQHYEVRTE | 0.59
10 | HEIDEWSEEWKHELIHNLRTGDEHRLKELADPHTRIIIDGREIHGMDFALKLIHKRVMEMRHKEFHIRRIDHQGEKIVMDVEVRVNFNGREDSVNFRIISEKFNGRWIIHYITLI | 1.49
11 | DEHREFAKHVLEALVRALETGDEDTIRELFDPNYRIEIGDKTVIGRKYWELFIRRVDHIEVHIIIRDFDVQGNKVIIRGDSHIHLNYDGRTLDIQHHVNFVIRKVDGKWVFHSEHFI | 1.79
12 | DEELKALEDLSKKEIEAHLTGDEDTLVQLADPNMKILYNGREFHGWNVWKKISSKMIEEMRLRRVELEHVHVINGQIDSHGILDVEVNGRRVKERMHIVMLKVNGRWLIHSVEYR | 1.27
13 | SEDQEVAEKDLEIYSRAITTGNEHELKHLLDPNYKLIVNGQEYHGWETLRHYWKHLRVESVEFEIRSFDSQGDKLHIDGIIILHGEVDGRHTELFEDVHIRAHKINGRWHNKEVNIR | 0.897
14 | DEDERQLEESLKHWIKALETGNEEEVMRLLDPNVKIEIGDKDLHGMEAEEERLRKVKGMRIEFRLRDMKHIGDKIDIDGELRLNFNGVDIKSKIIIFAHKFNGRWINRRIIVL | 1.83
15 | DEEKEEEDLVLEILIHMMRTGDEELLDELLDPNARQIVGDKEFIGRELSHWFATFFKNVKVEIKHFRVINGRIHMHVHIQIGDKRHDMRITARKVNGKWVLEESHIR | 1.62
16 | DEKEKEFKEVWKRILEILLTGDEEELTRMADPHARLDVNGVERHGREEMSKYIRHWHEKVKNARFWIHSIHVVGEKVVIDTEIQIGDKRIRYIVHFIVVDGRIKEIHVHEEII | 2.12
17 | SEEERLAEHYYRETIELITTGDWRKLLELFDPDARLVIGDKTYHGMDTIIKIWEELRMHIRDVHFHHVSVIDGRIHLDVVVDVTKNIDGVRIRTTHRVHIIMEKIDGKWFVREIRIK | 2.38
18 | DESEKYLKDAVEILIRVIRTGDEHTMKELLDPNVRLHAENHESHGRELLEWWTRRIDHVNDSKIEDMRTVGDYVELDMRLHTVFNGQTIDIKTTFIIIKVNGKWQLRSVHIH | 1.26
19 | DHDDHMREHLIELFIRWTTTGDFDELLRLVDPNARFDVNGREIHGWDVFMKMYEDTRHLLGADHAEVRNKDERFQGDKVTITIEVTIEVGDKEHREERELYVRKVDGKWTMKSLKIR | 0.703

Row | Sequence | protease stability score
20 | DLYKHWTDVLLHLFLHVSRTGDEEEVVRLMDPNTLIIINGQEIHGREEIKRTFREMRVDDERLKDMDKIGNKVRVDGEVRITVDGQERTSRAHMVVLKVDGRWTIHSLRIE | 1.77
21 | SHEDKLNEEVARLIIHAWKTGNERLMLKLLDPHTRFEQGDKEMVGREHLLEMLRHRLEELGVDHIDFKDYKIDVVDGVLNIYLRIEIEVGDKHIDMIIKVIVLKFDGRWHVHEVRVEER | 1.5
22 | DEEKKVAMELAILLFHLWLTGDEETERRLADPDTRMDVDGKDIIGREELSKVWERILKEMRFDRWEVDRVDVVNGQVHLHGHIRGKYNGKEETREIEITINIVNGRLKSVHFNLR | 1.87
23 | HEDEEHALKLTMDFLRWIYTGDEDTLNKYADPNVRLDIGDKVFHGMEFINKHMKELRFHRIHVKRFEAHVVDGKLRSHMDVRIDGNVDGRRRETDVELIFFWEKIDGRWVNTSIIIHHH | 1.27
24 | DEAHEWLKTLADLFFHWMLTGDFEHWIDYLDPDAKIEFEGRSNHGRENIYQLLLELKQEIRVRDYELKDVRIQGEKLLLNVHLHGHIGDKEIRTDTVLRLRVVDGRLKEVHIEIR | 1.52
25 | TEHRHLIEQHLRDLQHDMRTGDEDNLHKLADPHVRVDIDGRQLHGREAWSKTMFELRTDIRVDRFDVQGNKIHIEGHLIEHFDGRTINMRVHIIWFKVDGRWLIHEVRIE | 1.22
26 | DEEEEESKQVAELIITLLTTGDEERFLELADPNVRHHQGDKELHGREDLHKTVEDWGWSKVDSRLEDVEVQGEFVIVRGKMIVNGRRVDVEYIVRKVDGRWYIHMVIYH | 1.07
27 | SEDEEESEKFLRRLLQAYRTGDEDKLNELIDPNARMDVNGVDNHGWEEISRLLKELRVKHLILHDQKNYDGRAEMDTIVDGRFNGRDDRRKSIIIVIKIDGRWIIESLSIG | 1.1
28 | DEEEDKLRKFADHFWHLRLTGDFDIWEHLADPDTKENQGEYSNIGREHISEYNLRETRKFKNIRMHIRRKTIQGDKIKIDGVLIFNGVEIEVILILIVINGRIREVRVHIE | 1.6
29 | DERDESLKNIFELLERILETGDEDDSSKLADPHTRMHWNGKELHGRELYADLFDRLLRELGVDHVRLKIHEVRIQGDKIRMDGTLHLIQGDKEERRRVHLVAHKINGRWHIKQVSIN | 1.26
30 | SEDEEFAKHASEIMSRILETGNEEETNRMMDPNVRLDWNGQDHVGREDVLRFRKLIIEILGIERIKVELHDVKTVNGRVHTDIIVNINGQEYRLRVFMTKVNGRWHVKFMEFE | 1.7
31 | SEDEIAVKKFMQRWIEAVHTGNEDVLTELADPNYRIIFEGRNLHGMDQILHDVRRVDVLEERMHVTSVDSQGDKIHIHGTLQVHFHVGDKQIDIHTQVTWHMLKIDGVWILKKVEIH | 1.39
32 | DEDDEAVKRFIDEFVHSMRTGDEEKLYRLADPHVRSVIDGVEFVGMHWLTTELHHLRVQRLEFEFKDIHFQGDKAHVRGHLILTLHFNGREYVVRREVELIILKINGRWHLHEFIWR | 1.68
33 | DEDHQASRLVFELLDRAWKTGDEQILNEMMDPHVKVVFNGVELHGRSALERLMKELRIDTLHLDHTEIYDGRMETEGKVDGEYNGRTLHHITKIRFEKIDGRWVEREVVIK | 0.815
34 | TDDEEIWKIAIKMLRSAMHTGDEDTIKHLLDPNVRIEINGREIIGREIYAKHLREIRVDVERWEDHHIEVQGEFMHVKGRVVLTEEINGQEVREDVKLHVLVLKIDGQWRITSLYFR | 0.754
35 | SEDEWWARYVTKLLIHSMKTGDEDLLHELADPSTKLDVGDKRYHGREEFRRLMRELRERADHLTISIKHIEVQGDKVDLDMHIRLEYGDKFIELRVHIHVEKVNGQWRLREREER | 0.879
36 | SELEEENRQALKESLREWETGDEKRLHENADPNARLQYGDKHYHGRENVSHMLTHIIEKFGIDHMRVRDFRVQGEKVETHVELRVGDKHLHIRIITMKVNGKWLFHSVHMHIE | 0.997
37 | DEEKNLIIELVHLFLVAFWTGNEELLRHLADPDVRFEIDGREHHGREELEKHLEHWWMKIEHIEEKEIRVIDGRVHIDGHVRGTLIINGRENRISYDVEIHAEVIDGRFKYVKVKQK | 2.48

Source: the NTF2 design screens of Basanta et al. (2020)
